Reference: the supplement of paper PMC7877785
± gives the uncertainty stated by the source.

Test: self-splicing fitness, log relative to wild type (ln ratio); higher = more splicing; Tetrahymena group I intron in knt gene, E. coli kanamycin selection, DiMSum; sequences stand for … in CUCUCU…GGAGGGAAAAGUUAUCAGGCAUGCACCUGGUAGCUAGUCUUUAAACCAAUAGAUUGCAUCGGUUUAAAAGGCAAGACCGUCAAAUUGCGGGAAAGGGGUCAACAGCCGUUCAGUACCAAGUCUCAGGGGAAACUUUGAGAUGGCCUUGCAAAGGGUAUGGUAAUAAGCUGACGGACAUGGUCCUAACCACGCAGCCAAGUCCUAAGUCAACAGAUCUUCUGUUGAUAUGGAUGCAGUUCACAGACUAAAUGUCGGUCGGGGAAGAUGUAUUCUUCUCAUAAGAUAUAGUCGGACCUCUCCUUAAUGGGAGCUAGCGGAUGAAGUGAUGCAACACUGGAGCCGCUGGGAACUAAUUUGUAUGCGAAAGUAUAUUGAUUAGUUUUGGAGUACUCGUGGUCG
Summary of the method: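 DiMSum derived fitness as the error-weighted combination of fold changes across replicates, kanamycin versus no kanamycin, normalised to wild type. E. coli BL21(DE3) held the library, which randomised all eight P1ex-region intron nucleotides within the knt kanamycin-resistance gene on pET-22b(+). Six replicate transformations grew overnight at 37°C or 30°C on LB agar with or without 25 μg/mL kanamycin, also containing 100 μg/mL carbenicillin, 50 μM IPTG and 0.2% rhamnose, and pooled colonies were amplicon-sequenced on an Illumina HiSeq 2500.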

Sequence | self-splicing fitness (ln) (30 °C) | self-splicing fitness (ln) (37 °C)
GAAAAGCAAUAUUACGCUUG | -1.72 ± 0.13 | -0.918 ± 0.14
GAAAAGCAAUAUUACGGCCA | -1.03 ± 0.16 | 0.81 ± 0.21
GAAAAGCAAUAUUACGGCCU | -0.569 ± 0.12 | 0.296 ± 0.14
GAAAAGCAAUAUUACGGUAG | -3.24 ± 0.18 | -1.53 ± 0.13
GAAAAGCAAUAUUACGGUGA | -1.48 ± 0.07 | -1.07 ± 0.075
GAAAAGCAAUAUUACGUAAA | -2.4 ± 0.13 | -0.992 ± 0.14
GAAAAGCAAUAUUACGUAGG | -3.87 ± 0.14 | -1.96 ± 0.11
GAAAAGCAAUAUUACGUGAG | -1.53 ± 0.068 | -1.47 ± 0.11
GAACAGCAAUAUUACGAAUU | -1.15 ± 0.088 | -0.293 ± 0.1
GAACAGCAAUAUUACGAGCC | -1.57 ± 0.14 | -1.09 ± 0.22
GAACAGCAAUAUUACGAGGC | -3.07 ± 0.18 | -2.03 ± 0.14
GAACAGCAAUAUUACGAGUU | -2.29 ± 0.092 | -0.935 ± 0.1
GAACAGCAAUAUUACGAUAA | -0.728 ± 0.076 | -0.326 ± 0.092
GAACAGCAAUAUUACGAUAC | -0.825 ± 0.065 | -0.127 ± 0.087
GAACAGCAAUAUUACGAUGC | -0.47 ± 0.079 | 0.126 ± 0.12
GAACAGCAAUAUUACGCAAA | -1.37 ± 0.12 | -0.529 ± 0.11
GAACAGCAAUAUUACGCGUG | -0.931 ± 0.053 | -0.34 ± 0.059
GAACAGCAAUAUUACGCUAA | -1.13 ± 0.062 | -0.958 ± 0.075
GAACAGCAAUAUUACGCUCA | -1.23 ± 0.073 | 0.207 ± 0.1
GAACAGCAAUAUUACGCUCC | -3.43 ± 0.36 | -2.34 ± 0.43
GAACAGCAAUAUUACGCUUG | -0.92 ± 0.072 | -0.731 ± 0.087
GAACAGCAAUAUUACGGAUG | -2.79 ± 0.16 | -2.29 ± 0.14
GAACAGCAAUAUUACGGCCA | -0.58 ± 0.18 | -0.441 ± 0.22
GAACAGCAAUAUUACGGCUC | -0.329 ± 0.1 | -0.256 ± 0.1
GAACAGCAAUAUUACGGGCC | -2.22 ± 0.14 | -1.09 ± 0.17
GAACAGCAAUAUUACGUAGA | -0.427 ± 0.049 | -0.162 ± 0.069

Sequence | self-splicing fitness (ln) (30 °C) | self-splicing fitness (ln) (37 °C)
GAACAGCAAUAUUACGUAUC | -2.83 ± 0.1 | -1.39 ± 0.12
GAACAGCAAUAUUACGUCAA | -1.14 ± 0.057 | -0.166 ± 0.06
GAACAGCAAUAUUACGUGCC | -2.58 ± 0.14 | -0.859 ± 0.12
GAACAGCAAUAUUACGUGGC | -3.03 ± 0.17 | -2.6 ± 0.18
GAACAGCAAUAUUACGUGGU | -3.12 ± 0.11 | -1.89 ± 0.09
GAACAGCAAUAUUACGUGUA | -1.58 ± 0.062 | -0.438 ± 0.069
GAACAGCAAUAUUACGUUGA | -1.47 ± 0.066 | -1.02 ± 0.077
GAAGAGCAAUAUUACGAAGG | -2.75 ± 0.17 | -3.62 ± 0.46
GAAGAGCAAUAUUACGAUGU | -2.54 ± 0.2 | -1.39 ± 0.15
GAAGAGCAAUAUUACGAUUG | -2.53 ± 0.29 | -2.4 ± 0.39
GAAGAGCAAUAUUACGCCCC | -1.93 ± 0.17 | -0.902 ± 0.18
GAAGAGCAAUAUUACGCGGG | -3.24 ± 0.28 | -2.65 ± 0.41
GAAGAGCAAUAUUACGCGUU | -3.69 ± 0.33 | -3.12 ± 0.28
GAAGAGCAAUAUUACGCUAU | -2.39 ± 0.24 | -2.79 ± 0.48
GAAGAGCAAUAUUACGCUCC | -2.52 ± 0.24 | –
GAAGAGCAAUAUUACGCUUA | -3.49 ± 0.33 | -1.3 ± 0.23
GAAGAGCAAUAUUACGGAGU | -3.07 ± 0.46 | -2.47 ± 0.45
GAAGAGCAAUAUUACGGGCG | -3.54 ± 0.37 | -2.84 ± 0.35
GAAGAGCAAUAUUACGGUGC | – | -2.41 ± 0.21
GAAGAGCAAUAUUACGGUUC | -3.53 ± 0.29 | -1.46 ± 0.22
GAAGAGCAAUAUUACGUCAG | -3.58 ± 0.2 | -3.03 ± 0.35
GAAGAGCAAUAUUACGUGCA | -2.38 ± 0.18 | -1.24 ± 0.2
GAAGAGCAAUAUUACGUGUC | -4.75 ± 0.46 | -2.79 ± 0.27
GAAGAGCAAUAUUACGUGUU | -4.18 ± 0.23 | -2.12 ± 0.18
GAAGAGCAAUAUUACGUUAC | -2.82 ± 0.17 | -2.7 ± 0.2
GAAUAGCAAUAUUACGAAAA | -1.52 ± 0.22 | -1.02 ± 0.2

Sequence | self-splicing fitness (ln) (30 °C) | self-splicing fitness (ln) (37 °C)
GAAUAGCAAUAUUACGAAAG | -3.86 ± 0.41 | -2.55 ± 0.27
GAAUAGCAAUAUUACGAAUA | -1.07 ± 0.17 | -1.57 ± 0.22
GAAUAGCAAUAUUACGACGA | -0.436 ± 0.36 | 0.000314 ± 0.24
GAAUAGCAAUAUUACGAGCA | -1.94 ± 0.23 | -0.431 ± 0.14
GAAUAGCAAUAUUACGAGUG | -2.01 ± 0.076 | -2.34 ± 0.13
GAAUAGCAAUAUUACGCACU | -0.269 ± 0.089 | 0.18 ± 0.11
GAAUAGCAAUAUUACGCAUA | -2.62 ± 0.29 | -1.08 ± 0.17
GAAUAGCAAUAUUACGCCCC | -0.0149 ± 0.39 | -0.245 ± 0.42
GAAUAGCAAUAUUACGCCGC | – | -1.45 ± 0.43
GAAUAGCAAUAUUACGCGAC | -1.89 ± 0.2 | 0.34 ± 0.18
GAAUAGCAAUAUUACGCGCC | -1.29 ± 0.24 | -1.32 ± 0.29
GAAUAGCAAUAUUACGCGGA | -1.54 ± 0.15 | -1.43 ± 0.15
GAAUAGCAAUAUUACGCUGG | -2.17 ± 0.33 | -0.278 ± 0.24
GAAUAGCAAUAUUACGCUGU | -3.12 ± 0.21 | -2.1 ± 0.15
GAAUAGCAAUAUUACGCUUC | – | -1.83 ± 0.44
GAAUAGCAAUAUUACGGAUU | -0.925 ± 0.053 | -0.4 ± 0.07
GAAUAGCAAUAUUACGGCAC | -0.0381 ± 0.12 | -0.000648 ± 0.15
GAAUAGCAAUAUUACGGCCA | -0.596 ± 0.1 | -0.0233 ± 0.13
GAAUAGCAAUAUUACGGGCU | -2.85 ± 0.16 | -1.19 ± 0.13
GAAUAGCAAUAUUACGGGGG | -2.93 ± 0.26 | -1.87 ± 0.25
GAAUAGCAAUAUUACGUACG | -1.38 ± 0.12 | -1.45 ± 0.14
GAAUAGCAAUAUUACGUAUC | -1.7 ± 0.13 | -1.75 ± 0.2
GAAUAGCAAUAUUACGUAUU | -2.18 ± 0.15 | -1.45 ± 0.14
GAAUAGCAAUAUUACGUCAC | -2.47 ± 0.17 | -1.31 ± 0.17
